We go through 1 protein from patent US20230203470A1 (published 2023).

This series concerns the molecule itself. The series is described as follows: size-exclusion chromatography of anti-FLAG affinity purified protein (self-association into a homodimer). On the technique in general: SEC sorts molecules by how far they enter the pores of the column.

Procedure: Batch purification was performed using an anti-FLAG M2 affinity resin (Sigma-Aldrich, St. Louis, Mo., Cat. No. A2220), following the manufacturer's instructions. ADA2 were eluted from the resin using FLAG™ peptide. Purity of the eluted protein was assessed using SDS-PAGE and size-exclusion chromatography (SEC).

B1: WT recombinant human ADA2-FLAG polypeptide (enzyme)
chain: IDETRAHLLLKEKMMRLGGRLVLNTKEELANERLMTLKIAEMKEAMRTLIFPPSMHFFQAKHLIERSQVFNILRMMPKGAALHLHDIGIVTMDWLVRNVTYRPHCHICFTPRGIMQFRFAHPTPRPSEKCSKWILLEDYRKRVQNVTEFDDSLLRNFTLVTQHPEVIYTNQNVVWSKFETIFFTISGLIHYAPVFRDYVFRSMQEFYEDNVLYMEIRARLLPVYELSGEHHDEEWSVKTYQEVAQKFVETHPEFIGIKIIYSDHRSKDVAVIAESIRMAMGLRIKFPTVVAGFDLVGHEDTGHSLHDYKEALMIPAKDGVKLPYFFHAGETDWQGTSIDRNILDALMLNTTRIGHGFALSKHPAVRTYSWKKDIPIEVCPISNQVLKLVSDLRNHPVATLMATGHPMVISSDDPAMFGAKGLSYDFYEVFMGIGGMKADLRTLKQLAMNSIKYSTLLESEKNTFMEIWKKRWDKFIADVATKDYKDDDDK
notes: The only entry describes two identical subunits associating into the homodimer seen by SEC; Expressed in CHO-S cells and purified on anti-FLAG M2 resin; also called rHuADA2; rHuADA2-FLAG
Take B1: the binding result is “binds”.
